Key:
[1] = molecular target: Fuk85HA44-309 (truncated HA on 293T cells) (Influenza A virus H3N2, …, UniProt P12589 44-309); experiment: flow cytometry on 293T cells expressing truncated HA
[2] = molecular target: Fuk85HA39-319 (truncated HA on 293T cells) (Influenza A virus H3N2, …, UniProt P12589 39-319); experiment: as above

B1: F005-126 antibody (IgG) (antibody, V domains shown)
VH: QVQLVQSGAEVKKPGASVTVSCQVSGYTLTSYGLSWVRQAPGQGLEWVGWINTYDGQTKYVKKFQGRVTMTTHTGTNTAYMEMKSLRSDDTAVYYCARVEGVRGVMGFHYYPMDVWGQGTMVTVSS
VL: QSVLTQPPSVSGAPGQRVTISCTGSSSNIGAGYAVHWYQQLPGTAPKLLISGNSNRPSGVPDRFSGSKSGTSASLAITGLQAEDEADYYCQSYDSSLSGSVFGGGTKLTVLG
notes: also called F5126; F05126
B1: no binding [1]; binds [2].

— patent US20140086927A1 (FUJITA HEALTH UNIVERSITY, published 2014)
